Data set [1] addresses PDGF-BB (platelet-derived growth factor BB) (Homo sapiens, UniProt P01127 P01127:82-190). The experiment in a line: 33-mer described previously (US 5,723,594); measurement conditions not stated. The conditions noted are these: tags: R&D Systems, carrier free lyophilized; chain copies: 2 (inferred, homodimer).
The target in data set [2] is T1, Wheat germ agglutinin (WGA) (Triticum vulgare, UniProt P10968 P10968:27-197).
T1 sequence: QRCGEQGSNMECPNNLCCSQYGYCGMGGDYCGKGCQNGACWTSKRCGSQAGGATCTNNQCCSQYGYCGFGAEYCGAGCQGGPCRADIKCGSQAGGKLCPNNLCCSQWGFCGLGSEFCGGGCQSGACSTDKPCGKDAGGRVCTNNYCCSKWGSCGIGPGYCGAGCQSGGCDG
As to the kind of experiment: filter; 10 nM aptamer and 10 nM WGA, HBSMC pH 7.4, room temperature; displaced by (GlcNAc)2, (GlcNAc)3 and (GlcNAc)4, not by GlcNAc. To be noted: tags: EY Laboratories; chain copies: 2; label: 5'-32P. How it is done: Small molecule oligosaccharides were screened for their ability to compete with WGA aptamer 11.20 for binding to wheat germ agglutinin protein. The small molecule (or cold 11.20) competitors at varying concentrations were mixed with the 5′-32P end-labeled 11.20 ligand at room temperature. Then WGA was added to the mixture and allowed to equilibrate for 60 minutes at room temperature. The competition mixtures (90 μL volume) all had 32P end-labeled 11.20 at 10 nM, WGA at 10 nM and were in 25 mM Hepes, 137 mM NaCl, 2.7 mM KCl, 1 mM MgCl₂, 1 mM CaCl₂, 0.067% human serum albumin (HSA), at pH 7.4 (HBSMC). Aptamer bound to WGA was separated from free aptamer by filtration through pre-washed […] nitrocellulose membrane filters. Filters were washed with 5 mL HBSMC at room temperature. The filters were placed in tubes with scintillant and the radioactivity counted to quantitate the fraction of 32P end-labeled 11.20 bound at each competitor concentration.

Chain of PDGF-BB (platelet-derived growth factor BB) (P01127 82-190, one chain of several): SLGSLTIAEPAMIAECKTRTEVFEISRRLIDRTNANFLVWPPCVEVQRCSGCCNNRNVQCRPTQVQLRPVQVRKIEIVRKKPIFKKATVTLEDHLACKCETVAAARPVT

The term Kd denotes the free concentration of one partner at which half of the binding sites on the other are occupied at equilibrium, for simple one-to-one binding. Higher therefore signals weaker binding. For CGGGCGCGTTCTTCGTGGTTACTTTTAGTCCCG (ssDNA) [20ta], the Kd in data set [1] worked out at 0.05 nM.

B1: 11.20 (ssRNA)
RNA: GGGAAAAGCGAAUCAUACACAAGAUUGGUCGUACUGGACAGAGCCGUGGUAGAGGGAUUGGGACAAAGUGUCAGCUCCGCCAGAGACCAACCGAGAA
modifications: 2'-NH2 pyrimidines
For the molecule B1, in data set [2], the binding result is on record as “binds”.

Source of the values: US20020197617, “Aptamers as reagents for high throughput screening” (GILEAD SCIENCES, INC., published 2002).
